In paper PMC4200421, “A distinct tethering step is vital for vacuole membrane fusion” (eLife, 2014):

Biological target: T1, Vam3p (vacuolar Qa-SNARE), on 3Q-SNARE proteoliposomes (S. cerevisiae, UniProt Q12241 1-283)
T1 construct: Vam3p, vacuolar Qa-SNARE of Saccharomyces cerevisiae; Bait of the co-immunoprecipitation (anti-Vam3p antibody); In every experiment Vam3p stood on the same proteoliposomes as the Qb-SNARE Vti1p and the Qc-SNARE Vam7p (3Q-RPLs); Constructs are in cited work; also called 3Q-RPLs; 3Q-SNAREs
T1 sequence (looked up): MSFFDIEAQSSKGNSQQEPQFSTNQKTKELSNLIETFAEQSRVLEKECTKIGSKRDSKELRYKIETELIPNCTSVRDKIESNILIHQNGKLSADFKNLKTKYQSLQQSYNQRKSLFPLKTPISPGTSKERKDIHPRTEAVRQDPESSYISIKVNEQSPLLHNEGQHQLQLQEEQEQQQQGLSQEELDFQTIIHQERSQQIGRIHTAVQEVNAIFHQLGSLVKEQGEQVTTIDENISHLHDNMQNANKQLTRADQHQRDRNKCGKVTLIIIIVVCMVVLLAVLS
Assay: co-IP; 1R-RPLs, or soluble Nyv1p at 100 nM, with 3Q-RPLs (Vam3p, Vti1p, Vam7p); 40 µl reaction 40 min at 27°C with HOPS (100 nM) or its buffer; diluted 10-fold in RIPA buffer with affinity-purified anti-Vam3p antibody (50 µg/ml) and 10 µM GST-Nyv1p; protein A magnetic beads, 2 hr room temperature; immunoblot with anti-Nyv1p
Conditions: both partners purified

B1: Soluble Nyv1p (sR), Nyv1(Δtm), Nyv1p(1-231) (domain or fragment, S. cerevisiae, UniProt Q12255 1-231, looked up)
chain: MKRFNVSYVEVIKNGETISSCFQPFQKNENYGTITSANEQITPVIFHNLIMDMVLPKVVPIKGNKVTKMSMNLIDGFDCFYSTDDHDPKTVYVCFTLVDMPKILPIRILSGLQEYESNATNELLSSHVGQILDSFHEELVEYRNQTLNSSGNGQSSNGNGQNTISDIGDATEDQIKDVIQIMNDNIDKFLERQERVSLLVDKTSQLNSSSNKFRRKAVNIKEIMWWQKVKN
notes: Nyv1p of Saccharomyces cerevisiae without its transmembrane anchor (Δtm); the methods name only Nyv1(Δtm); also called sNyv1p; recombinant soluble domain of Nyv1p; source: purified as GST-TEVsite-Nyv1(Δtm) as described (Thorngren et al., 2004), cleaved with TEV protease prior to use; not shown: GST, N-terminal, cleaved
B1: binds.

B2: Nyv1p (vacuolar R-SNARE), membrane-anchored, on R-SNARE proteoliposomes (natural protein, S. cerevisiae, UniProt Q12255 1-253, looked up)
chain: MKRFNVSYVEVIKNGETISSCFQPFQKNENYGTITSANEQITPVIFHNLIMDMVLPKVVPIKGNKVTKMSMNLIDGFDCFYSTDDHDPKTVYVCFTLVDMPKILPIRILSGLQEYESNATNELLSSHVGQILDSFHEELVEYRNQTLNSSGNGQSSNGNGQNTISDIGDATEDQIKDVIQIMNDNIDKFLERQERVSLLVDKTSQLNSSSNKFRRKAVNIKEIMWWQKVKNITLLTFTIILFVSAAFMFFYLW
notes: Nyv1p, vacuolar R-SNARE of Saccharomyces cerevisiae, membrane-anchored form; Schwartz and Merz, 2009; Zucchi and Zick, 2011 for the SNARE constructs; Exchanged into octylglucoside buffer before reconstitution; also called wild-type Nyv1p; 1R; source: pure recombinant protein, purified as described (cited work), reconstituted into proteoliposomes by detergent dialysis
B2: binds.
